Data published in patent US9938510B2, “Photobacterium sp. alpha-2-6-sialyltransferase variants” (The Regents of the University of California, priority 2014, dated 2018).

Tests used:
[1] = earlier reports (Ding 2011; Sun 2008); cited from earlier work
[2] = Kinetics of CMP-Neu5Ac donor hydrolysis activity (capillary electrophoresis); format: biochemical
Experimental: Procedure for Kinetic Analysis of Donor Hydrolysis by His6-Pd2,6ST(16-497), Psp26ST(15-501)-His6 and its A235D and A366G Mutants
The kinetics study for the donor hydrolysis activity of His6-Pd2,6ST(16-497) was carried out at 37° C. for 20 min in Tris-HCl buffer (200 mM, pH 8.0). The kinetics study for the donor hydrolysis activities of Psp26ST(15-501)-His6 and its A235D mutant was carried out at 20° C. for 10 min in Tris-HCl buffer (200 mM, pH 8.0). All reactions were performed in duplicate in a total volume of 10 μL containing varied concentrations of CMP-Neu5Ac (10, 20, 40, 60, 80 and 100 mM) and the enzyme (6 μM). Reactions were stopped by adding 10 μL of ethanol and then centrifuged. The supernatants were analyzed by a P/ACETM capillary electrophoresis (CE) system equipped with a photodiode array (PDA) detector (Beckman Coulter, Inc., Fullerton, Calif.). CE conditions were as follows: 75 μm i.d. capillary, 25 KV/80μÅ, 5 s vacuum injections, monitored at 200 nm and 254 nm, the running buffer used was sodium tetraborate (25 mM, pH 9.4). Apparent kinetic parameters were obtained by fitting the experimental data (the average values of duplicate assay results) into the Michaelis-Menten equation using Grafit 5.0.

[3] = Sialylation assay with periodic addition of CMP-Neu5Ac; format: biochemical
Experimental: Two reactions were set up at 20° C. in MES buffer (200 mM, pH 5.0) containing Psp2,6ST(15-501)-His6 (6.0 μM), CMP-Neu5Ac (1 mM), and GalNAcα2AA (1 mM) in a total volume of 50 μL. One of the reactions was used as a control and was incubated for 4 h. The other was incubated for 1 h, 2 equivalents of CMP-Neu5Ac was then added. The same dose was added every hour for up to 4 h reaction duration. Aliquots (2 μL each) were withdrawn and the reactions were stopped by adding 10 μL of cold ethanol followed by centrifugation. The samples were diluted and kept on ice until aliquots of 8 μL were injected and analyzed by a Shimadzu LC-6AD system equipped with a membrane on-line degasser, a temperature control unit, and a fluorescence detector (Shimadzu RF-10AXL). A reverse-phase Premier C18 column (250×4.6 mm i.e., 5 μm particle size, Shimadzu) protected with a C18 guard column cartridge was used. The mobile phase was 25% acetonitrile in water. The 2-aminobenzoic acid (2AA)-labeled fluorescent acceptor and the product formed were detected with excitation at 315 nm and emission at 400 nm.

[4] = Apparent sialyltransferase kinetics, GalNAcα2AA as acceptor; format: biochemical
Experimental: (§1) Reactions were carried out in duplicate at 20° C. for 20 minutes in a total volume of 10 μL in a proper buffer at the optimal pH according to the pH profile of the wild-type enzyme (see, Ding, 2011, supra). When LacβMU was used as an acceptor, the conditions were: Tris-HCl buffer (200 mM, pH 8.0), enzyme (0.3 μM), varied concentrations of LacβMU (0.1, 0.25, 0.4, 1.0, 2.0, 4.0, and 6.0 mM) with a fixed concentration of CMP-Neu5Ac (1.0 mM) or varied concentrations of CMP-Neu5Ac (0.1, 0.25, 0.4, 1.0, 2.0, 4.0, and 6.0 mM) with a fixed concentration of LacβMU (1.0 mM). When GalNAcα2AA was used as an acceptor, the conditions were: NaOAc-HOAc buffer (200 mM, pH 5.0), enzyme (6 μM), varied concentrations of GalNAcα2AA (0.5, 0.8, 1.0, 2.0, 4.0, 8.0, and 10.0 mM) and a fixed concentration of CMP-Neu5Ac (4.0 mM) or varied concentrations of CMP-Neu5Ac (0.5, 1.0, 2.0, 4.0, 5.0, 8.0, and 10.0 mM) with a fixed concentration of GalNAcα2AA (1.0 mM). When GalNAcαSer was used as an acceptor, the conditions were: Tris-HCl buffer (200 mM, pH 8.0), enzyme (0.6 μM), varied concentrations of GalNAcαSer (0.1, 0.25, 0.5, 1.0, 2.0, 4.0, 8.0, and 10.0 mM) and a fixed concentration of CMP-Neu5Ac (2.0 mM). […]

[5] = Apparent sialyltransferase kinetics, GalNAcαThr as acceptor; format: biochemical
Experimental: as §1

[6] = Sialyltransferase activity assays, statements not tied to one acceptor (LacβMU, GalNAcα2AA, GalNAcαSer, GalNAcαThr); format: biochemical; conditions: α-linked N-acetyl galactosaminides, especially GalNAcα2AA or GalNAcαThr, as acceptor
Experimental: When LacβMU was used as an acceptor, the assay was performed in duplicate in 10 μL of Tris-HCl buffer (100 mM, pH 8.0) containing CMP-Neu5Ac (1 mM), LacβMU (1 mM), MgCl2 (20 mM), wild-type Psp2,6ST(15-501)-His6 or its mutant (0.3 μM). When an α-GalNAc-terminated acceptor was used, the assay was performed in duplicate in 10 μL of Tris-HCl buffer (100 mM, pH 8.0 for GalNAcαSer/Thr) or NaOAc-HOAc (100 mM, pH 5.0 for GalNAcα2AA) containing CMP-Neu5Ac (1.5 mM), the acceptor (1 mM), MgCl2 (20 mM), wild-type Psp2,6ST(15-501)-His6 or its mutant (3.0 μM). Reactions were allowed to proceed at 20° C. for 20 min and stopped by adding 10 μL of cold ethanol. The analysis of sialylated product conversion was performed using the HPLC system as described above for sialyltransferase activity assay. The 4-methylumbelliferone (MU)-labeled fluorescent acceptor and the product formed were detected with excitation at 325 nm and emission at 372 nm. The 2-aminobenzoic acid (2AA)-labeled fluorescent acceptors and the products formed were detected with excitation at 315 nm and emission at 400 nm. The 9-fluorenylmethylcarbamate (Fmoc)-labeled fluorescent acceptors and the products formed were detected with excitation at 262 nm and emission at 313 nm.

B1: Psp26ST(15-501)-His6: recombinant Photobacterium sp. JH-ISH-224 α2-6-sialyltransferase, residues 15-501, C-terminal His6, wild-type; SEQ ID NO: 23 (protein)
chain: CNNSEENTQSIIKNDINKTIIDEEYVNLEPINQSNISFTKHSWVQTCGTQQLLTEQNKESISLSVVAPRLDDDEKYCFDFNGVSNKGEKYITKVTLNVVAPSLEVYVDHASLPTLQQLMDIIKSEEENPTAQRYIAWGRIVPTDEQMKELNITSFALINNHTPADLVQEIVKQAQTKHRLNVKLSSNTAHSFDNLVPILKELNSFNNVTVTNIDLYDDGSAEYVNLYNWRDTLNKTDNLKIGKDYLEDVINGINEDTSNTGTSSVYNWQKLYPANYHFLRKDYLTLEPSLHELRDYIGDSLKQMQWDGFKKFNSKQQELFLSIVNFDKQKLQNEYNSSNLPNFVFTGTTVWAGNHEREYYAKQQINVINNAINESSPHYLGNSYDLFFKGHPGGGIINTLIMQNYPSMVDIPSKISFEVLMMTDMLPDAVAGIASSLYFTIPAEKIKFIVFTSTETITDRETALRSPLVQVMIKLGIVKEENVLFWA
modifications: C-terminal His6; Synthetic Psp26ST(15-501) WILD TYPE
- expression level of soluble protein [1]: 25 mg/L
- CMP-Neu5Ac hydrolysis efficiency relative to sialyltransferase activity (more efficient) ([2]; versus kcat/Km with GalNAcα2AA as acceptor): about 14 fold
- CMP-Neu5Ac hydrolysis efficiency relative to sialyltransferase activity (lower) ([2]; versus kcat/Km with LacβMU as acceptor): 13 fold
- sialylation yield ([3]; after an additional two equivalents of CMP-Neu5Ac, in 15 min): 17%
- sialylation yield ([3]; after the fourth dose (2 equivalents) of CMP-Neu5Ac): 33%
- sialylation yield ([3]; after the third dose (2 equivalents) of CMP-Neu5Ac): 25%
- sialylated product Neu5Acα2-6GalNAcα2AA formed ([3]; one equivalent of CMP-Neu5Ac, MES pH 5.0, 20° C., enzyme 6.0 μM, GalNAcα2AA 1 mM): 7.3%

B2: A366G: Photobacterium sp. JH-ISH-224 α2-6-sialyltransferase residues 15-501, A366G point mutation, C-terminal His6; SEQ ID NO: 2 (protein)
chain: CNNSEENTQSIIKNDINKTIIDEEYVNLEPINQSNISFTKHSWVQTCGTQQLLTEQNKESISLSVVAPRLDDDEKYCFDFNGVSNKGEKYITKVTLNVVAPSLEVYVDHASLPTLQQLMDIIKSEEENPTAQRYIAWGRIVPTDEQMKELNITSFALINNHTPADLVQEIVKQAQTKHRLNVKLSSNTAHSFDNLVPILKELNSFNNVTVTNIDLYDDGSAEYVNLYNWRDTLNKTDNLKIGKDYLEDVINGINEDTSNTGTSSVYNWQKLYPANYHFLRKDYLTLEPSLHELRDYIGDSLKQMQWDGFKKFNSKQQELFLSIVNFDKQKLQNEYNSSNLPNFVFTGTTVWGGNHEREYYAKQQINVINNAINESSPHYLGNSYDLFFKGHPGGGIINTLIMQNYPSMVDIPSKISFEVLMMTDMLPDAVAGIASSLYFTIPAEKIKFIVFTSTETITDRETALRSPLVQVMIKLGIVKEENVLFWA
modifications: C-terminal His6; Synthetic Psp26ST(15-501) A366G
- catalytic efficiency (kcat/Km) higher than the wild-type enzyme [4]: 1.3 fold
- catalytic efficiency (kcat/Km) higher than the wild-type enzyme [5]: 2.1 fold
- sialyltransferase activity compared to wild-type [6]: improved sialyltransferase activity
